These results are taken from IntAct's records for PubMed 31515488.

Sequences and labels used below:
B1: Keratin, type II cytoskeletal 79 (Homo sapiens), Q5XKE5 (parent)
chain: MRSSVSRQTYSTKGGFSSNSASGGSGSQARTSFSSVTVSRSSGSGGGAHCGPGTGGFGSRSLYNLGGHKSISVSVAGGALLGRALGGFGFGSRAFMGQGAGRQTFGPACPPGGIQEVTVNQSLLTPLHVEIDPEIQRVRTQEREQIKTLNNKFASFIDKVRFLEQQNKVLETKWALLQEQGQNLGVTRNNLEPLFEAYLGSMRSTLDRLQSERGRLDSELRNVQDLVEDFKNKYEDEINKHTAAENEFVVLKKDVDAAYMGRMDLHGKVGTLTQEIDFLQQLYEMELSQVQTHVSNTNVVLSMDNNRNLDLDSIIAEVKAQYELIAQRSRAEAEAWYQTKYEELQVTAGKHGDNLRDTKNEIAELTRTIQRLQGEADAAKKQCQQLQTAIAEAEQRGELALKDAQKKLGDLDVALHQAKEDLTRLLRDYQELMNVKLALDVEIATYRKLLESEESRMSGECPSAVSISVTGNSTTVCGGGAASFGGGISLGGSGGATKGGFSTNVGYSTVKGGPVSAGTSILRKTTTVKTSSQRY
partner: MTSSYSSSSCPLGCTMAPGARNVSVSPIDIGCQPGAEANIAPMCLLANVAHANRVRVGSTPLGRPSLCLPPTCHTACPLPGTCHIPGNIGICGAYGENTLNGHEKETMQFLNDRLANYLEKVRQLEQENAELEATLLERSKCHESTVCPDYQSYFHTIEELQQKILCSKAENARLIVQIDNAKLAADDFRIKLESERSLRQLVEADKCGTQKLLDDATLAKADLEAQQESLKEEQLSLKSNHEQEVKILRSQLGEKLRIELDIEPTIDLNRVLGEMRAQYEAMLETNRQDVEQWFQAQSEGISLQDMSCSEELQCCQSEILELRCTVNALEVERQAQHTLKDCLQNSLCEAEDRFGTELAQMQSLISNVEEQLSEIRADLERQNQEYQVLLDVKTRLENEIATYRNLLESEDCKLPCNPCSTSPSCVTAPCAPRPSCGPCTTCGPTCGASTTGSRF
B2: Protein BANP (Homo sapiens), Q8N9N5 (parent)
chain: MMSEHDLADVVQIAVEDLSPDHPVVLENHVVTDEDEPALKRQRLEINCQDPSIKTICLRLDSIEAKLQALEATCKSLEEKLDLVTNKQHSPIQVPMVAGSPLGATQTCNKVRCVVPQTTVILNNDRQNAIVAKMEDPLSNRAPDSLENVISNAVPGRRQNTIVVKVPGQEDSHHEDGESGSEASDSVSSCGQAGSQSIGSNVTLITLNSEEDYPNGTWLGDENNPEMRVRCAIIPSDMLHISTNCRTAEKMALTLLDYLFHREVQAVSNLSGQGKHGKKQLDPLTIYGIRCHLFYKFGITESDWYRIKQSIDSKCRTAWRRKQRGQSLAVKSFSRRTPNSSSYCPSEPMMSTPPPASELPQPQPQPQALHYALANAQQVQIHQIGEDGQVQVGHLHIAQVPQGEQVQITQDSEGNLQIHHVGQDGQLLEATRIPCLLAPSVFKASSGQVLQGAQLIAVASSDPAAAGVDGSPLQGSDIQVQYVQLAPVSDHTAGAQTAEALQPTLQPEMQLEHGAIQIQ
partner: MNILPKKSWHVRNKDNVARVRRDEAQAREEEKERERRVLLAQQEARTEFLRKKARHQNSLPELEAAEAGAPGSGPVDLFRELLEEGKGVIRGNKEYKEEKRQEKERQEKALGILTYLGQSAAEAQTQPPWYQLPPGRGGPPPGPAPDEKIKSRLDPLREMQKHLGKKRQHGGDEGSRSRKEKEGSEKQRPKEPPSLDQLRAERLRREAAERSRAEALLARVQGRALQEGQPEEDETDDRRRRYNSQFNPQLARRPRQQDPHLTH

Variants of B1 are the subject of the first experiment. The following applies: with krt38_human KRT38, O76015.
For MRSSVSRQTYSTKGGFSSNSASGGSGSQARTSFSSVTVSRSSGSGGGAHCGPGTGGFGSRSLYNLGGHKSISVSVAGGALLGRALGGFGFGSRAFMGQGAGRQTFGPACPPGGIQEVTVNQSLLTPLHVEIDPEIQRVRTQEREQIKTLNNKFASFIDKVRFLEQQNKVLETKWALLQEQGQNLGVTRNNLEPLFEAYLGSMRSTLDRLQSEWGRLDSELRNVQDLVEDFKNKYEDEINKHTAAENEFVVLKKDVDAAYMGRMDLHGKVGTLTQEIDFLQQLYEMELSQVQTHVSNTNVVLSMDNNRNLDLDSIIAEVKAQYELIAQRSRAEAEAWYQTKYEELQVTAGKHGDNLRDTKNEIAELTRTIQRLQGEADAAKKQCQQLQTAIAEAEQRGELALKDAQKKLGDLDVALHQAKEDLTRLLRDYQELMNVKLALDVEIATYRKLLESEESRMSGECPSAVSISVTGNSTTVCGGGAASFGGGISLGGSGGATKGGFSTNVGYSTVKGGPVSAGTSILRKTTTVKTSSQRY [R213W], the “effect of a mutation on the interaction” value was “disrupting interaction strength”. Regarding MRSSVSRQTYSTKGGFSSNSASGGSGSQARTSFSSVTVSRSSGSGGGAHCGPGTGGFGSRSLYNLGGHKSISVSVAGGALLGRALEGFGFGSRAFMGQGAGRQTFGPACPPGGIQEVTVNQSLLTPLHVEIDPEIQRVRTQEREQIKTLNNKFASFIDKVRFLEQQNKVLETKWALLQEQGQNLGVTRNNLEPLFEAYLGSMRSTLDRLQSERGRLDSELRNVQDLVEDFKNKYEDEINKHTAAENEFVVLKKDVDAAYMGRMDLHGKVGTLTQEIDFLQQLYEMELSQVQTHVSNTNVVLSMDNNRNLDLDSIIAEVKAQYELIAQRSRAEAEAWYQTKYEELQVTAGKHGDNLRDTKNEIAELTRTIQRLQGEADAAKKQCQQLQTAIAEAEQRGELALKDAQKKLGDLDVALHQAKEDLTRLLRDYQELMNVKLALDVEIATYRKLLESEESRMSGECPSAVSISVTGNSTTVCGGGAASFGGGISLGGSGGATKGGFSTNVGYSTVKGGPVSAGTSILRKTTTVKTSSQRY [G86E], the “effect of a mutation on the interaction” value was “with no effect”. In the case of MRSSVSRQTYSTKGGFSSNSASGGSGSQARTSFSSVTVSRSSGSGGGAHCGPGTGGFGSRSLYNLGGHKSISVSVAGGALLGRALGGFGFGSRAFMGQGAGRQTFGPACPPGGIQEVTVNQSLLTPLHVEIDPEIQRVRTQEREQIKTLNNKFASFIDKVQFLEQQNKVLETKWALLQEQGQNLGVTRNNLEPLFEAYLGSMRSTLDRLQSERGRLDSELRNVQDLVEDFKNKYEDEINKHTAAENEFVVLKKDVDAAYMGRMDLHGKVGTLTQEIDFLQQLYEMELSQVQTHVSNTNVVLSMDNNRNLDLDSIIAEVKAQYELIAQRSRAEAEAWYQTKYEELQVTAGKHGDNLRDTKNEIAELTRTIQRLQGEADAAKKQCQQLQTAIAEAEQRGELALKDAQKKLGDLDVALHQAKEDLTRLLRDYQELMNVKLALDVEIATYRKLLESEESRMSGECPSAVSISVTGNSTTVCGGGAASFGGGISLGGSGGATKGGFSTNVGYSTVKGGPVSAGTSILRKTTTVKTSSQRY [R161Q], the “effect of a mutation on the interaction” value is “with no effect”. MRSSVSRQTYSTKGGFSSNSASGGSGSQACTSFSSVTVSRSSGSGGGAHCGPGTGGFGSRSLYNLGGHKSISVSVAGGALLGRALGGFGFGSRAFMGQGAGRQTFGPACPPGGIQEVTVNQSLLTPLHVEIDPEIQRVRTQEREQIKTLNNKFASFIDKVRFLEQQNKVLETKWALLQEQGQNLGVTRNNLEPLFEAYLGSMRSTLDRLQSERGRLDSELRNVQDLVEDFKNKYEDEINKHTAAENEFVVLKKDVDAAYMGRMDLHGKVGTLTQEIDFLQQLYEMELSQVQTHVSNTNVVLSMDNNRNLDLDSIIAEVKAQYELIAQRSRAEAEAWYQTKYEELQVTAGKHGDNLRDTKNEIAELTRTIQRLQGEADAAKKQCQQLQTAIAEAEQRGELALKDAQKKLGDLDVALHQAKEDLTRLLRDYQELMNVKLALDVEIATYRKLLESEESRMSGECPSAVSISVTGNSTTVCGGGAASFGGGISLGGSGGATKGGFSTNVGYSTVKGGPVSAGTSILRKTTTVKTSSQRY [R30C]: the “effect of a mutation on the interaction” value is listed as “with no effect”.

The variants in a further experiment derive from B2. As to conditions: with leng1_human LENG1, Q96BZ8.
Consider MMSEHDLADVVQIAVEDLSPDHPVVLENHVVTDEDEPALKRQRLEINCQDPSIKTICLRLDSIEAKLQALEATCKSLEEKLDLVTNKQHSPIQVPMVAGSPLGATQTCNKVRCVVPQTTVILNNDRQNAIVAKMEDPLSNRAPDSLENVISNAVPGRRQNTIVVKVPGQEDSHHEDGESGSEASDSVSSCGQAGSQSIGSNVTLITLNSEEDYPNGTWLGDENNPEMRVRCAIIPSDMLHISTNCRTAEKMALTLLDYLFHREVQAVSNLSGQGKHGKKQLDPLTIYGIRCHLFYKFGITESDWYRIKQSIDSKCRTAWRRKQRGQSLAVKSFSRRTPNSSSYCPSESMMSTPPPASELPQPQPQPQALHYALANAQQVQIHQIGEDGQVQVGHLHIAQVPQGEQVQITQDSEGNLQIHHVGQDGQLLEATRIPCLLAPSVFKASSGQVLQGAQLIAVASSDPAAAGVDGSPLQGSDIQVQYVQLAPVSDHTAGAQTAEALQPTLQPEMQLEHGAIQIQ [P348S], for which the “effect of a mutation on the interaction” value was “with no effect”.
